Experimental data published in PMC8049080.

Columns and labels:
[1] = target: dopamine D2 receptor, short isoform, p.Ile212Phe variant (UniProt P14416); assay: FRET or BRET; HEK293 cells 48 hours after transfection, in phosphate-buffered saline with 0.1 mM CaCl2 and 0.5 mM MgCl2, ~100,000 cells/well; quinpirole (20-minute stimulation) followed by coelenterazine h at room temperature; agonist-induced recruitment, expressed as percentage of maximum recruitment by D2-WT
[2] = target: dopamine D2 receptor, long isoform, p.Ile212Phe variant (UniProt P14416); assay: as above

Substance: arrestin3 (from UniProt P32121 1-409) (natural protein)
- maximal recruitment, percent of that by D2S-WT [1]: 68%
- maximal recruitment, percent of that by D2L-WT [2]: 48%
